B1: preproecarin S396, delta III, IV (pDOEC38) (protein)
chain: CSIILGSGNVNDYEVVYPQKVTALPKGAVQQPEQKYEDAMQYEFEVKGEPVVLHLEKNKELFSEDYSETHYSSDDREITTNPSVEDHCYYHGRIQNDAESTASISACNGLKGHFKLRGETYFIEPLKIPDSEAHAVYKYENIENEDEAPKMCGVTQDNWESDEPIKKTLGLIVPPHERKFEKKFIELVVVVDHSMVTKYNNDSTAIRTWIYEMLNTVNEIYLPFNIRVALVGLEFWCNGDLINVTSTADDTLHSFGEWRASDLLNRKRHDHAQLLTNVTLDHSTLGITFVYGMCKSDRSVELILDYSNITFNMAYIIAHEMGHSLGMLHDTKFCTCGAKPCIMFGKESIPPPKEFSSCSYDQYNKYLLKYNPKCILDSP
B2: preproecarin S396, S170 delta III, IV (pDOEC40) (protein)
chain: CSIILGSGNVNDYEVVYPQKVTALPKGAVQQPEQKYEDAMQYEFEVKGEPVVLHLEKNKELFSEDYSETHYSSDDREITTNPSVEDHCYYHGRIQNDAESTASISACNGLKGHFKLRGETYFIEPLKIPDSEAHAVYKYENIENEDEAPKMSGVTQDNWESDEPIKKTLGLIVPPHERKFEKKFIELVVVVDHSMVTKYNNDSTAIRTWIYEMLNTVNEIYLPFNIRVALVGLEFWCNGDLINVTSTADDTLHSFGEWRASDLLNRKRHDHAQLLTNVTLDHSTLGITFVYGMCKSDRSVELILDYSNITFNMAYIIAHEMGHSLGMLHDTKFCTCGAKPCIMFGKESIPPPKEFSSCSYDQYNKYLLKYNPKCILDSP
B3: preproecarin S396, delta IV (pDOEC37) (protein)
chain: CSIILGSGNVNDYEVVYPQKVTALPKGAVQQPEQKYEDAMQYEFEVKGEPVVLHLEKNKELFSEDYSETHYSSDDREITTNPSVEDHCYYHGRIQNDAESTASISACNGLKGHFKLRGETYFIEPLKIPDSEAHAVYKYENIENEDEAPKMCGVTQDNWESDEPIKKTLGLIVPPHERKFEKKFIELVVVVDHSMVTKYNNDSTAIRTWIYEMLNTVNEIYLPFNIRVALVGLEFWCNGDLINVTSTADDTLHSFGEWRASDLLNRKRHDHAQLLTNVTLDHSTLGITFVYGMCKSDRSVELILDYSNITFNMAYIIAHEMGHSLGMLHDTKFCTCGAKPCIMFGKESIPPPKEFSSCSYDQYNKYLLKYNPKCILDSPLRKDIASPAVCGNEIWEEGEECDCGSPADCRNPCCDAATCKLKPGAECGNGECCDKCKIRKAGTECRPARDDCDVAEHCTGQSAECPRNEFQR
B4: preproecarin S396, S170, delta IV (pDOEC39) (protein)
chain: CSIILGSGNVNDYEVVYPQKVTALPKGAVQQPEQKYEDAMQYEFEVKGEPVVLHLEKNKELFSEDYSETHYSSDDREITTNPSVEDHCYYHGRIQNDAESTASISACNGLKGHFKLRGETYFIEPLKIPDSEAHAVYKYENIENEDEAPKMSGVTQDNWESDEPIKKTLGLIVPPHERKFEKKFIELVVVVDHSMVTKYNNDSTAIRTWIYEMLNTVNEIYLPFNIRVALVGLEFWCNGDLINVTSTADDTLHSFGEWRASDLLNRKRHDHAQLLTNVTLDHSTLGITFVYGMCKSDRSVELILDYSNITFNMAYIIAHEMGHSLGMLHDTKFCTCGAKPCIMFGKESIPPPKEFSSCSYDQYNKYLLKYNPKCILDSPLRKDIASPAVCGNEIWEEGEECDCGSPADCRNPCCDAATCKLKPGAECGNGECCDKCKIRKAGTECRPARDDCDVAEHCTGQSAECPRNEFQR
B5: preproecarin S396, S170, His6 (pDOEC35) (protein)
chain: CSIILGSGNVNDYEVVYPQKVTALPKGAVQQPEQKYEDAMQYEFEVKGEPVVLHLEKNKELFSEDYSETHYSSDDREITTNPSVEDHCYYHGRIQNDAESTASISACNGLKGHFKLRGETYFIEPLKIPDSEAHAVYKYENIENEDEAPKMSGVTQDNWESDEPIKKTLGLIVPPHERKFEKKFIELVVVVDHSMVTKYNNDSTAIRTWIYEMLNTVNEIYLPFNIRVALVGLEFWCNGDLINVTSTADDTLHSFGEWRASDLLNRKRHDHAQLLTNVTLDHSTLGITFVYGMCKSDRSVELILDYSNITFNMAYIIAHEMGHSLGMLHDTKFCTCGAKPCIMFGKESIPPPKEFSSCSYDQYNKYLLKYNPKCILDSPLRKDIASPAVCGNEIWEEGEECDCGSPADCRNPCCDAATCKLKPGAECGNGECCDKCKIRKAGTECRPARDDCDVAEHCTGQSAECPRNEFQRNGQPCLNNSGYCYNGDCPIMLNQCIALFSPSATVAQDSCFQRNLQGSYYGYCTKEIGYYGKRFPCAPQDVKCGRLYCLDNSFKKNMRCKNDYSYADENKGIVEPGTKCEDGKVCINRKCVDVNTAYHHHHHH
B6: preproecarin S396, His6 (pDOEC30) (protein)
chain: CSIILGSGNVNDYEVVYPQKVTALPKGAVQQPEQKYEDAMQYEFEVKGEPVVLHLEKNKELFSEDYSETHYSSDDREITTNPSVEDHCYYHGRIQNDAESTASISACNGLKGHFKLRGETYFIEPLKIPDSEAHAVYKYENIENEDEAPKMCGVTQDNWESDEPIKKTLGLIVPPHERKFEKKFIELVVVVDHSMVTKYNNDSTAIRTWIYEMLNTVNEIYLPFNIRVALVGLEFWCNGDLINVTSTADDTLHSFGEWRASDLLNRKRHDHAQLLTNVTLDHSTLGITFVYGMCKSDRSVELILDYSNITFNMAYIIAHEMGHSLGMLHDTKFCTCGAKPCIMFGKESIPPPKEFSSCSYDQYNKYLLKYNPKCILDSPLRKDIASPAVCGNEIWEEGEECDCGSPADCRNPCCDAATCKLKPGAECGNGECCDKCKIRKAGTECRPARDDCDVAEHCTGQSAECPRNEFQRNGQPCLNNSGYCYNGDCPIMLNQCIALFSPSATVAQDSCFQRNLQGSYYGYCTKEIGYYGKRFPCAPQDVKCGRLYCLDNSFKKNMRCKNDYSYADENKGIVEPGTKCEDGKVCINRKCVDVNTAYHHHHHH
B7: preproecarin P396, His6 (pDOEC34) (protein)
chain: CSIILGSGNVNDYEVVYPQKVTALPKGAVQQPEQKYEDAMQYEFEVKGEPVVLHLEKNKELFSEDYSETHYSSDDREITTNPSVEDHCYYHGRIQNDAESTASISACNGLKGHFKLRGETYFIEPLKIPDSEAHAVYKYENIENEDEAPKMCGVTQDNWESDEPIKKTLGLIVPPHERKFEKKFIELVVVVDHSMVTKYNNDSTAIRTWIYEMLNTVNEIYLPFNIRVALVGLEFWCNGDLINVTSTADDTLHSFGEWRASDLLNRKRHDHAQLLTNVTLDHSTLGITFVYGMCKSDRSVELILDYSNITFNMAYIIAHEMGHSLGMLHDTKFCTCGAKPCIMFGKESIPPPKEFSSCSYDQYNKYLLKYNPKCILDPPLRKDIASPAVCGNEIWEEGEECDCGSPADCRNPCCDAATCKLKPGAECGNGECCDKCKIRKAGTECRPARDDCDVAEHCTGQSAECPRNEFQRNGQPCLNNSGYCYNGDCPIMLNQCIALFSPSATVAQDSCFQRNLQGSYYGYCTKEIGYYGKRFPCAPQDVKCGRLYCLDNSFKKNMRCKNDYSYADENKGIVEPGTKCEDGKVCINRKCVDVNTAYHHHHHH

This data set concerns the target human prothrombin, P00734.
Protein B1 had an Ecarin Activity, 48 Hours, +APMA of 0; an Ecarin Activity, 48 Hours, -APMA of 0; an Ecarin Activity, 120 Hours, +APMA of 14; an Ecarin Activity, 120 Hours, -APMA of 0. Moreover, the prothrombin converting activity entry is “Deletion of the Cys-rich domain (positions 491 to 616) or the disintegrin and Cys-rich domains (398-616) abolished all ecarin activity in the presence or absence of APMA”.
As to B2, the Ecarin Activity, 48 Hours, +APMA was determined as 50; the Ecarin Activity, 48 Hours, -APMA turned out to be 0; the Ecarin Activity, 120 Hours, +APMA worked out at 0; the Ecarin Activity, 120 Hours, -APMA came out at 0. In addition, the prothrombin converting activity result was “Deletion of the Cys-rich domain (positions 491 to 616) or the disintegrin and Cys-rich domains (398-616) abolished all ecarin activity in the presence or absence of APMA”.
For the protein B3, the Ecarin Activity, 48 Hours, +APMA came to 0; the Ecarin Activity, 48 Hours, -APMA was found to be 0; the Ecarin Activity, 120 Hours, +APMA amounted to 68; the Ecarin Activity, 120 Hours, -APMA is 34. In addition, the prothrombin converting activity entry was “Deletion of the Cys-rich domain (positions 491 to 616) or the disintegrin and Cys-rich domains (398-616) abolished all ecarin activity in the presence or absence of APMA”.
Protein B4 registered an Ecarin Activity, 48 Hours, +APMA of 0; an Ecarin Activity, 48 Hours, -APMA of 0; an Ecarin Activity, 120 Hours, +APMA of 0; an Ecarin Activity, 120 Hours, -APMA of 0. The prothrombin converting activity entry is “Deletion of the Cys-rich domain (positions 491 to 616) or the disintegrin and Cys-rich domains (398-616) abolished all ecarin activity in the presence or absence of APMA”.
Regarding B5, the “Ecarin Activity, 48 Hours, +APMA” value is 7,526; the “Ecarin Activity, 48 Hours, -APMA” value is given as 12,127; the “Ecarin Activity, 120 Hours, +APMA” value is listed as 14,850; the “Ecarin Activity, 120 Hours, -APMA” value is given as 20,524. The prothrombin converting activity result is “Alteration of position 170 to serine resulted in constituitive activation of proecarin, which was partially inhibited by the addition of APMA”.
As for B6, the “Ecarin Activity, 48 Hours, +APMA” value was 74,077; the “Ecarin Activity, 48 Hours, -APMA” value was 20,079; the “Ecarin Activity, 120 Hours, +APMA” value is 164,602; the “Ecarin Activity, 120 Hours, -APMA” value is listed as 28,372. In addition, the “conversion of prothrombin to thrombin by immobilized ecarin, Coomassie stained SDS-PAGE” value is on record as “essentially complete (greater than 95%)”; the prothrombin converting activity result was “Proecarin having a serine at position 396 was active in the absence of APMA, and the amount of activity increased several fold by pretreatment with APMA”.
In the case of B7, the Ecarin Activity, 48 Hours, +APMA is 32; the Ecarin Activity, 48 Hours, -APMA was 36; the Ecarin Activity, 120 Hours, +APMA came out at 0; the Ecarin Activity, 120 Hours, -APMA came out at 43. The prothrombin converting activity entry is “Proecarin having the sequence disclosed in Nishida et al. (supra) had no activity in the presence or absence of APMA”.

The record behind these values is US6413737.
